Data taken from PMC5757783.

Biological target: histone H2A-N38C (Xenopus laevis)
Assay: cross-linking

stoichiometry N: 2
Substance: histone H2A-N38C (natural protein)
